The values that follow come from US20070148774A1.

In assay [1] the target is bovine thyroglobulin (bovine) (UniProt P01267). The assay can be described thus: phage ELISA, 200 ug/ml thyroglobulin coated.
Assay [2] deals with fd h-PDGFB-R phage (extracellular domain of the human receptor for PDGF isoform BB displayed on fd phage) (human; bacteriophage fd) (UniProt P09619). As to the kind of experiment: displacement of 125I-PDGF-BB from receptor phage, immunoprecipitation.
fd h-PDGFB-R phage (extracellular domain of the human receptor for PDGF isoform BB displayed on fd phage) (human; bacteriophage fd), sequence (P09619 33-531, form in doubt): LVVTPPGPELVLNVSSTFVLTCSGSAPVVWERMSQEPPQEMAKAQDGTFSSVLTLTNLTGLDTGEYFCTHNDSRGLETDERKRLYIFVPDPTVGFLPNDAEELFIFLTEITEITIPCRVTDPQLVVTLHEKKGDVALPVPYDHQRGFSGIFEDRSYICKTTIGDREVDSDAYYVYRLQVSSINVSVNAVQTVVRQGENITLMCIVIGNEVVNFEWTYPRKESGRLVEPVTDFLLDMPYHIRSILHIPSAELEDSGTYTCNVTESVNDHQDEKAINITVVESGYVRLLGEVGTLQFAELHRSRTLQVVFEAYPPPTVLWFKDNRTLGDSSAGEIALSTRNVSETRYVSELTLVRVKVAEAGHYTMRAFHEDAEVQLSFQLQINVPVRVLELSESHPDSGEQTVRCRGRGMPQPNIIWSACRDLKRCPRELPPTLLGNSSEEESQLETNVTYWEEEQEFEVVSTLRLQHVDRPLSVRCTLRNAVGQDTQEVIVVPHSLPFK

bovine thyroglobulin (bovine), sequence (P01267 20-2769 limits assumed): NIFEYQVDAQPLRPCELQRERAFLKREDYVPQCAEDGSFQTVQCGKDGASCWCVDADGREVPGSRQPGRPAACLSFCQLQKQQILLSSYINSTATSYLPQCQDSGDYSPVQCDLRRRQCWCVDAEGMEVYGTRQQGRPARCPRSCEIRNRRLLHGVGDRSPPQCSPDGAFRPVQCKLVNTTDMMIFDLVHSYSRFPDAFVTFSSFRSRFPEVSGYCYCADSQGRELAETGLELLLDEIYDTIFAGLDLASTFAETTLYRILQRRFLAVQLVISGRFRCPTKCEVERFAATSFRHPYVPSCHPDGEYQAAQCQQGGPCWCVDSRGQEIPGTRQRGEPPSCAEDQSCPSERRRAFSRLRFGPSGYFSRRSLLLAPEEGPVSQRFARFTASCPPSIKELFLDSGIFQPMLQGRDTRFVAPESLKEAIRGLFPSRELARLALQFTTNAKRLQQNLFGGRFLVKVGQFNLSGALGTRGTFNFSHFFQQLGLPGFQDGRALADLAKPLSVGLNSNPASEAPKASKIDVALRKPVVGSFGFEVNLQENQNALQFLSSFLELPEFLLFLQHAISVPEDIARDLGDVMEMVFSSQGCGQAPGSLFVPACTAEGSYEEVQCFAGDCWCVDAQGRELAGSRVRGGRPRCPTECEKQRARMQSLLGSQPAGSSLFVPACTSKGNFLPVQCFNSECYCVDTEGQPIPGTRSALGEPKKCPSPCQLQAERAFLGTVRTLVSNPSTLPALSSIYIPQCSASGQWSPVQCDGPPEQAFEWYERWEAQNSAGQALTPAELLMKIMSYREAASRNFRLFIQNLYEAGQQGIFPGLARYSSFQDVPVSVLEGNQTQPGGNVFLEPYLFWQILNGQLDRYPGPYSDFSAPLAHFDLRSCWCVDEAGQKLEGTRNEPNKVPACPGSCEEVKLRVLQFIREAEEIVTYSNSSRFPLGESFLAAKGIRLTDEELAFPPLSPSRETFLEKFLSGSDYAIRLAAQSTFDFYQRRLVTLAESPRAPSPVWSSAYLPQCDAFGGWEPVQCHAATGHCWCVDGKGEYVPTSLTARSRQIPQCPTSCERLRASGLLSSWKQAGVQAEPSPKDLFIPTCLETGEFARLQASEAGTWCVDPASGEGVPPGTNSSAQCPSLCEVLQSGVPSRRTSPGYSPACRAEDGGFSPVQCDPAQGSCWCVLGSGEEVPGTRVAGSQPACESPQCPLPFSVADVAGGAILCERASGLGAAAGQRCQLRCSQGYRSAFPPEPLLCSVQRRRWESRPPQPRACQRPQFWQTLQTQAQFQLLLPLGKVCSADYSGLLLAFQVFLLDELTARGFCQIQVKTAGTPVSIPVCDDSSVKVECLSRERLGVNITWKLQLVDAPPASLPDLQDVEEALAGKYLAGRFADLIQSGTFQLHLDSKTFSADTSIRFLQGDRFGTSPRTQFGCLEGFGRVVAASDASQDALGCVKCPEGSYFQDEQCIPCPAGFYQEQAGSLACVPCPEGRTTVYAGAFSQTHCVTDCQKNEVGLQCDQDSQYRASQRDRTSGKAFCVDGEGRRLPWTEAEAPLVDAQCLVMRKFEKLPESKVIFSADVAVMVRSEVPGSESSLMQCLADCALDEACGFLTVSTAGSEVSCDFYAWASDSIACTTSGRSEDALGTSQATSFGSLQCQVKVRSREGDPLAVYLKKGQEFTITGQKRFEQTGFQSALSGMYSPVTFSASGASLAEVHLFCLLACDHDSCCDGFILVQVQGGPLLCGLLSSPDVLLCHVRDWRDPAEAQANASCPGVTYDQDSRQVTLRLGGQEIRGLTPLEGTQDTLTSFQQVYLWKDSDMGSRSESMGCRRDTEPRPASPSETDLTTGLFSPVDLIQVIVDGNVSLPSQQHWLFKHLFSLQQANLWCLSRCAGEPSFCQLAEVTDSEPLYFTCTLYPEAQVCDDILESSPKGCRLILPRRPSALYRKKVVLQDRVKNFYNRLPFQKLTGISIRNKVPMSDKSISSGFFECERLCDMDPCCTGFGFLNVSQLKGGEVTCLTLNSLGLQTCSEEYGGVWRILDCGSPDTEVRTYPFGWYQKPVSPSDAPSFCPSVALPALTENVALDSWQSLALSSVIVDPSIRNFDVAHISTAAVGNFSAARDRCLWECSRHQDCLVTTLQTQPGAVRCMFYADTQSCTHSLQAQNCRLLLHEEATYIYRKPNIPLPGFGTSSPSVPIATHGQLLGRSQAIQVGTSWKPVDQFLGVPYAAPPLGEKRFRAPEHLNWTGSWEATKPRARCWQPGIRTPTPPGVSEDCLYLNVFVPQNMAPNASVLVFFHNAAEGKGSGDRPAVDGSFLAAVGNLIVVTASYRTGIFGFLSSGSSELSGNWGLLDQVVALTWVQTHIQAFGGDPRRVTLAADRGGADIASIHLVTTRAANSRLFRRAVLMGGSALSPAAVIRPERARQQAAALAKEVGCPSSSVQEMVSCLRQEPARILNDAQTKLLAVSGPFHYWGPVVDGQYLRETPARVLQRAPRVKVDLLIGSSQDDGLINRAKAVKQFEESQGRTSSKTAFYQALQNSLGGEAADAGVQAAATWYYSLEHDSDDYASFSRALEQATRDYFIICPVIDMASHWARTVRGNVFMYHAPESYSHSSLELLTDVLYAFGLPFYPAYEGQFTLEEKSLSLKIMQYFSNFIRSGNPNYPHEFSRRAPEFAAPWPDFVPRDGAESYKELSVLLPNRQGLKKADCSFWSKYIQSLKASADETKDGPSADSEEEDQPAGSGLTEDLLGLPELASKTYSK

Regarding “pCAT-3 non-recombinant vector phagemid particles (from UniProt P03661 19-424)”, the O.D. in ELISA in assay [1] was 0.07 O.D.

Consider “unlabelled PDGF-BB (from UniProt P01127 82-190; P01127 82-190) (ligand)”, for which the concentration at which binding of 125I-PDGF-BB was reduced to the control level in assay [2] was 50 nM.
